Assay results from paper PMC9279676, “ERK2 MAP kinase regulates SUFU binding by multisite phosphorylation of GLI1” (Life Science Alliance, 2022).
Numbering of substitutions follows the chain as printed. In names and notes the source's numbering stands. Several values for one entry are separate records, joined by “and”; a condition that tells them apart may be missing. Equal values may be shown once. Blank lines part the entries; values can stand above or below the binder they belong to.

Tests used:
[1] = molecular target: T1, GST-SUFU (fusion of GST to full-length human SUFU) (human, UniProt Q9UMX1-1 1-484); experiment: pull-down; purified GST-SUFU, 1.25-80 nM, captured on glutathione-Sepharose beads; ∼1 pmol 35S-GLI1 (1-232 or full length) in 200 μl; 15 min at 30°C, then 1 h at room temperature; Binding Buffer + 1 mg/ml BSA; bound GLI1 quantified by SDS-PAGE and Phosphorimager; Kd from binding isotherms; conditions: one partner purified
T1 construct: human SUFU, full length (residues 1-484), BamHI-SUFU-SalI cassette in pGEX-LB; pGEX-LB carries a Gly-Gly-Gly-Gly-Gly-Ser-Gly stretch between GST and the fused protein; also called full-length GST-SUFU; source: Escherichia coli, purified (glutathione-Sepharose); not shown: GST, N-terminal, kept
T1 sequence (looked up): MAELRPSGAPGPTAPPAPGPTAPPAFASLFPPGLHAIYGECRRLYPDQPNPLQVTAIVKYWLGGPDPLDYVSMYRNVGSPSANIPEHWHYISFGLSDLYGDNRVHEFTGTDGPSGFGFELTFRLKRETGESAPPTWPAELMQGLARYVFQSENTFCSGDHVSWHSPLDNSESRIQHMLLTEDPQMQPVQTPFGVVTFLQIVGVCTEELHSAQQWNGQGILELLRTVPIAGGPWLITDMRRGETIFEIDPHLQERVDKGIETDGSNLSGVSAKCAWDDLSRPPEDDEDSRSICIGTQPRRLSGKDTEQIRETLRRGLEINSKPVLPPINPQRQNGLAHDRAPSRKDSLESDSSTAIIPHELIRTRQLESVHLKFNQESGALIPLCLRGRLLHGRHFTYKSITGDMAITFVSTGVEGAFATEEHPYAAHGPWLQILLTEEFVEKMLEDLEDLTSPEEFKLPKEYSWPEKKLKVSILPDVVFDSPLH

[2] = molecular target: T2, full-length human SUFU protein, 35S-radiolabeled (human, UniProt Q9UMX1-1 1-484, [35S]-methionine label); experiment: pull-down; purified GST-GLI1_(68-232) variants (mock treated or ERK2 phosphorylated), 0 or 1.25-80 nM, on glutathione-Sepharose beads; ∼1 pmol 35S-SUFU in 200 μl; 15 min at 30°C, then 1 h at room temperature; Binding Buffer (20 mM Tris-HCl pH 7.5, 125 mM KOAc, 0.5 mM EDTA, 5 mM DTT, 0.1% Tween20, 12.5% glycerol) + 1 mg/ml BSA; bound SUFU quantified by SDS-PAGE and Phosphorimager; Kd from binding isotherms; conditions: one partner purified
T2 construct: human SUFU, full length, residues 1-484, from plasmid pGEM4Z-SUFU; also called 35S-SUFU; radiolabeled SUFU; source: in vitro transcription and translation (SP6, Promega), partially purified by ammonium sulfate precipitation
T2 sequence (looked up): T1 sequence (looked up)

[3] = molecular target: T3, full-length human SUFU protein, 35S-radiolabeled (human, UniProt Q9UMX1-1 1-484, [35S]-methionine label); experiment: GLI1 phosphorylated by ERK2
T3 chain: T1 sequence (looked up)

- Kd [1]: 8 nM and 14 nM
B1: GLI1_(1-232), wild type, 35S-radiolabeled (domain or fragment, human, UniProt P08151-1 1-232, looked up)
chain: MFNSMTPPPISSYGEPCCLRPLPSQGAPSVGTEGLSGPPFCHQANLMSGPHSYGPARETNSCTEGPLFSSPRSAVKLTKKRALSISPLSDASLDLQTVIRTSPSSLVAFINSRCTSPGGSYGHLSIGTMSPSLGFPAQMNHQKGPSPSFGVQPCGPHDSARGGMIPHPQSRGPFPTCQLKSELDMLVGKCREEPLEGDMSSPNSTGIQDPLLGMLDGREDLEREEKREPESV
modifications: [35S]-methionine label
notes: source: in vitro transcription/translation (T7), partially purified by ammonium sulfate precipitation

- Kd [1]: 3800 nM
B2: GLI1_(1-232) L124P (tumor-derived), 35S-radiolabeled (domain or fragment, human, UniProt P08151-1 1-232, looked up)
chain: B1 chain with L124P
modifications: [35S]-methionine label
notes: source: in vitro transcription/translation, partially purified by ammonium sulfate precipitation

- fold reduction in affinity against wild-type GLI1_(1-232) [1]: ~8 fold
B3: GLI1_(1-232) S102E, 35S-radiolabeled (domain or fragment, human, UniProt P08151-1 1-232, looked up)
chain: B1 chain with S102E
modifications: [35S]-methionine label
notes: as for B1

- fold reduction in affinity against wild-type GLI1_(1-232) [1]: 65 fold
B4: GLI1_(1-232) S102E S116E S130E, 35S-radiolabeled (domain or fragment, human, UniProt P08151-1 1-232, looked up)
chain: B1 chain with S102E, S116E, S130E
modifications: [35S]-methionine label
notes: also called S102E S116E S130E triple mutant; EEE; source: in vitro transcription/translation (T7), partially purified by ammonium sulfate precipitation

- fold reduction in affinity against wild-type GLI1_(1-232) [1]: 38 fold
B5: GLI1_(1-232) S102E S130E, 35S-radiolabeled (domain or fragment, human, UniProt P08151-1 1-232, looked up)
chain: B1 chain with S102E, S130E
modifications: [35S]-methionine label
notes: also called S102E S130E double mutant; source: in vitro transcription/translation (T7), partially purified by ammonium sulfate precipitation

- fold reduction in affinity against wild-type GLI1_(1-232) [1]: 12 fold
B6: GLI1_(1-232) S102E S116E, 35S-radiolabeled (domain or fragment, human, UniProt P08151-1 1-232, looked up)
chain: B1 chain with S102E, S116E
modifications: [35S]-methionine label
notes: also called S102E S116E double mutant; source: in vitro transcription/translation (T7), partially purified by ammonium sulfate precipitation

- Kd [1]: 181 ± 30 nM
B7: GLI1_(1-232) S105F (tumor-derived), 35S-radiolabeled (domain or fragment, human, UniProt P08151-1 1-232, looked up)
chain: B1 chain with S105F
modifications: [35S]-methionine label
notes: as for B2

- Kd [2]: 93 nM
- Kd [3]: 118 nM
B8: GST-GLI1_(68-232), wild type, phosphorylated by ERK2 (domain or fragment, human, UniProt P08151-1 68-232, looked up)
chain: FSSPRSAVKLTKKRALSISPLSDASLDLQTVIRTSPSSLVAFINSRCTSPGGSYGHLSIGTMSPSLGFPAQMNHQKGPSPSFGVQPCGPHDSARGGMIPHPQSRGPFPTCQLKSELDMLVGKCREEPLEGDMSSPNSTGIQDPLLGMLDGREDLEREEKREPESV
modifications: phosphorylated by ERK2 to ∼3 mol phosphate per mole; most efficient sites Ser116 and Ser130, followed by Ser102 and Ser201
notes: vector pGEX-LB; also called ERK2-phosphorylated GLI1; WT + ERK2; source: bacteria, purified (glutathione-Sepharose); then phosphorylated with purified active ERK2 (2 h, 30°C)

- Kd [2]: ~3 nM
B9: GST-GLI1^S102 (GST-GLI1_(68-232), only S102 intact), mock treated (domain or fragment, human, UniProt P08151-1 68-232, looked up)
chain: B8 chain with S3A, S19A, S49A, S63A, S79A, S134A
notes: only the SP site S102 intact; also called S102 one site only; source: bacteria, purified (glutathione-Sepharose); mock treated (no ERK2)

- Kd [2]: 20 nM
B10: GST-GLI1^AAA, treated with active ERK2 (domain or fragment, human, UniProt P08151-1 68-232, looked up)
chain: B8 chain with S35A, S49A, S63A
modifications: treated with ERK2; S70, S86, S146 and S201 remained intact as possible phosphosites
notes: also called GLI1^AAA + ERK2; source: bacteria, purified (glutathione-Sepharose); then phosphorylated with purified active ERK2

- Kd [2]: ~4 nM and 4 nM and 3 nM
B11: GST-GLI1_(68-232), wild type, unphosphorylated (mock treated) (domain or fragment, human, UniProt P08151-1 68-232, looked up)
chain: B8 chain
notes: vector pGEX-LB (Gly-Gly-Gly-Gly-Gly-Ser-Gly stretch between GST and the fused part); the plasmid is from Whisenant et al, 2010; also called wild-type GLI1; WT; source: bacteria, purified (glutathione-Sepharose); untreated or mock treated (no ERK2)

- Kd [2]: 43 ± 8 nM
B12: GST-GLI1^S102,S116, phosphorylated by ERK2 (domain or fragment, human, UniProt P08151-1 68-232, looked up)
chain: B8 chain with S3A, S19A, S63A, S79A, S134A
modifications: phosphorylated by ERK2; intact SP sites S102, S116
notes: only the SP sites S102 and S116 intact; also called ERK2-treated GLI1^S102,S116; source: bacteria, purified (glutathione-Sepharose); then phosphorylated with purified active ERK2

- Kd [2]: 14 ± 4 nM
B13: GST-GLI1^S102, phosphorylated by ERK2 (domain or fragment, human, UniProt P08151-1 68-232, looked up)
chain: B8 chain with S3A, S19A, S49A, S63A, S79A, S134A
modifications: phosphorylated by ERK2; only intact SP site S102
notes: only the SP site S102 intact; also called ERK2-treated GLI1^S102; source: bacteria, purified (glutathione-Sepharose); then phosphorylated with purified active ERK2

- Kd [2]: 17 nM
B14: GST-GLI1^AAA (GST-GLI1_(68-232) S102A S116A S130A), mock treated (domain or fragment, human, UniProt P08151-1 68-232, looked up)
chain: B8 chain with S35A, S49A, S63A
notes: source: bacteria, purified (glutathione-Sepharose); mock treated (no ERK2)

- Kd [2]: 127 nM
B15: GST-GLI1^SSS, phosphorylated by ERK2 (domain or fragment, human, UniProt P08151-1 68-232, looked up)
chain: B8 chain with S3A, S19A, S79A, S134A
modifications: phosphorylated by ERK2; intact SP sites S102, S116, S130
notes: only S102, S116 and S130 left intact; also called ERK-phosphorylated GLI1^SSS; phosphorylated GLI1^SSS mutant; source: bacteria, purified (glutathione-Sepharose); then phosphorylated with purified active ERK2

- Kd [2]: ~23 nM
B16: GST-GLI1^7A, treated with active ERK2 (domain or fragment, human, UniProt P08151-1 68-232, looked up)
chain: B8 chain with S3A, S19A, S35A, S49A, S63A, S79A, S134A
modifications: treated with ERK2; only minimally phosphorylated
notes: also called 7A+ERK2; ERK2-treated GLI1^7A; source: bacteria, purified (glutathione-Sepharose); then treated with purified active ERK2

- Kd [2]: 2.6 nM
B17: GST-GLI1^SSS (GST-GLI1_(68-232) S70A S86A S146A S201A), mock treated (domain or fragment, human, UniProt P08151-1 68-232, looked up)
chain: B8 chain with S3A, S19A, S79A, S134A
notes: only S102, S116 and S130 left intact; source: bacteria, purified (glutathione-Sepharose); mock treated (no ERK2)

- Kd [2]: 25 ± 3 nM
B18: GST-GLI1^S102,S130, phosphorylated by ERK2 (domain or fragment, human, UniProt P08151-1 68-232, looked up)
chain: B8 chain with S3A, S19A, S49A, S79A, S134A
modifications: phosphorylated by ERK2; intact SP sites S102, S130
notes: only the SP sites S102 and S130 intact; also called ERK2-treated GLI1^S102,S130; source: bacteria, purified (glutathione-Sepharose); then phosphorylated with purified active ERK2

- Kd [2]: ~23 nM
B19: GST-GLI1^7A (GST-GLI1_(68-232) with all seven SP serines changed to alanine), mock treated (domain or fragment, human, UniProt P08151-1 68-232, looked up)
chain: B8 chain with S3A, S19A, S35A, S49A, S63A, S79A, S134A
notes: as for B14

- Kd [2]: 14 nM
B20: GST-GLI1^S116 (GST-GLI1_(68-232), only S116 intact), mock treated (domain or fragment, human, UniProt P08151-1 68-232, looked up)
chain: B8 chain with S3A, S19A, S35A, S63A, S79A, S134A
notes: only the SP site S116 intact; also called S116 one site only; source: bacteria, purified (glutathione-Sepharose); mock treated (no ERK2)
